Reference: US20230407373A1 (priority 2020, published 2023)
Like-named read-outs stand apart in the source and are kept apart here.

B1: ZNF326: host protein, UniProt Q5BKZ1 (protein, UniProt Q5BKZ1 1-582, looked up)
DBIRD complex subunit ZNF326: MDFEDDYTHSACRNTYQGFNGMDRDYGPGSYGGMDRDYGHGSYGGQRSMDSYLNQSYGMDNHSGGGGGSRFGPYESYDSRSSLGGRDLYRSGYGFNEPEQSRFGGSYGGRFESSYRNSLDSFGGRNQGGSSWEAPYSRSKLRPGFMEDRGRENYSSYSSFSSPHMKPAPVGSRGRGTPAYPESTFGSRNYDAFGGPSTGRGRGRGHMGDFGSIHRPGIVVDYQNKSTNVTVAAARGIKRKMMQPFNKPSGTFIKKPKLAKPMEKISLSKSPTKTDPKNEEEEKRRIEARREKQRRRREKNSEKYGDGYRMAFTCSFCKFRTFEEKDIELHLESSSHQETLDHIQKQTKFDKVVMEFLHECMVNKFKKTSIRKQQTNNQTEVVKIIEKDVMEGVTVDDHMMKVETVHCSACSVYIPALHSSVQQHLKSPDHIKGKQAYKEQIKRESVLTATSILNNPIVKARYERFVKGENPFEIQDHSQDQQIEGDEEDEEKIDEPIEEEEDEDEEEEAEEVGEVEEVEEVEEVREGGIEGEGNIQGVGEGGEVGVVGEVEGVGEVEEVEELEEETAKEEPADFPVEQPEEN
B2: DKC1 (protein, UniProt O60832 2-514, looked up)
H/ACA ribonucleoprotein …: ADAEVIILPKKHKKKKERKSLPEEDVAEIQHAEEFLIKPESKVAKLDTSQWPLLLKNFDKLNVRTTHYTPLACGSNPLKREIGDYIRTGFINLDKPSNPSSHEVVAWIRRILRVEKTGHSGTLDPKVTGCLIVCIERATRLVKSQQSAGKEYVGIVRLHNAIEGGTQLSRALETLTGALFQRPPLIAAVKRQLRVRTIYESKMIEYDPERRLGIFWVSCEAGTYIRTLCVHLGLLLGVGGQMQELRRVRSGVMSEKDHMVTMHDVLDAQWLYDNHKDESYLRRVVYPLEKLLTSHKRLVMKDSAVNAICYGAKIMLPGVLRYEDGIEVNQEIVVITTKGEAICMAIALMTTAVISTCDHGIVAKIKRVIMERDTYPRKWGLGPKASQKKLMIKQGLLDKHGKPTDSTPATWKQEYVDYSESAKKEVVAEVVKAPQVVAEAAKTAKRKRESESESDETPPAAPQLIKKEKKKSKKDKKAKAGLESGAEPGDGDSDTTKKKKKKKKAKEVELVSE
B3: KRT10 (protein, UniProt P13645 1-584, looked up)
Keratin, type I cytoskeletal …: MSVRYSSSKHYSSSRSGGGGGGGGCGGGGGVSSLRISSSKGSLGGGFSSGGFSGGSFSRGSSGGGCFGGSSGGYGGLGGFGGGSFRGSYGSSSFGGSYGGIFGGGSFGGGSFGGGSFGGGGFGGGGFGGGFGGGFGGDGGLLSGNEKVTMQNLNDRLASYLDKVRALEESNYELEGKIKEWYEKHGNSHQGEPRDYSKYYKTIDDLKNQILNLTTDNANILLQIDNARLAADDFRLKYENEVALRQSVEADINGLRRVLDELTLTKADLEMQIESLTEELAYLKKNHEEEMKDLRNVSTGDVNVEMNAAPGVDLTQLLNNMRSQYEQLAEQNRKDAEAWFNEKSKELTTEIDNNIEQISSYKSEITELRRNVQALEIELQSQLALKQSLEASLAETEGRYCVQLSQIQAQISALEEQLQQIRAETECQNTEYQQLLDIKIRLENEIQTYRSLLEGEGSSGGGGRGGGSFGGGYGGGSSGGGSSGGGHGGGHGGSSGGGYGGGSSGGGSSGGGYGGGSSSGGHGGSSSGGYGGGSSGGGGGGYGGGSSGGGSSSGGGYGGGSSSGGHKSSSSGSVGESSSKGPRY
B4: POP1: host protein, UniProt Q99575 (protein, UniProt Q99575 1-1024, looked up)
Ribonucleases P/MRP protein …: MSNAKERKHAKKMRNQPTNVTLSSGFVADRGVKHHSGGEKPFQAQKQEPHPGTSRQRQTRVNPHSLPDPEVNEQSSSKGMFRKKGGWKAGPEGTSQEIPKYITASTFAQARAAEISAMLKAVTQKSSNSLVFQTLPRHMRRRAMSHNVKRLPRRLQEIAQKEAEKAVHQKKEHSKNKCHKARRCHMNRTLEFNRRQKKNIWLETHIWHAKRFHMVKKWGYCLGERPTVKSHRACYRAMTNRCLLQDLSYYCCLELKGKEEEILKALSGMCNIDTGLTFAAVHCLSGKRQGSLVLYRVNKYPREMLGPVTFIWKSQRTPGDPSESRQLWIWLHPTLKQDILEEIKAACQCVEPIKSAVCIADPLPTPSQEKSQTELPDEKIGKKRKRKDDGENAKPIKKIIGDGTRDPCLPYSWISPTTGIIISDLTMEMNRFRLIGPLSHSILTEAIKAASVHTVGEDTEETPHRWWIETCKKPDSVSLHCRQEAIFELLGGITSPAEIPAGTILGLTVGDPRINLPQKKSKALPNPEKCQDNEKVRQLLLEGVPVECTHSFIWNQDICKSVTENKISDQDLNRMRSELLVPGSQLILGPHESKIPILLIQQPGKVTGEDRLGWGSGWDVLLPKGWGMAFWIPFIYRGVRVGGLKESAVHSQYKRSPNVPGDFPDCPAGMLFAEEQAKNLLEKYKRRPPAKRPNYVKLGTLAPFCCPWEQLTQDWESRVQAYEEPSVASSPNGKESDLRRSEVPCAPMPKKTHQPSDEVGTSIEHPREAEEVMDAGCQESAGPERITDQEASENHVAATGSHLCVLRSRKLLKQLSAWCGPSSEDSRGGRRAPGRGQQGLTREACLSILGHFPRALVWVSLSLLSKGSPEPHTMICVPAKEDFLQLHEDWHYCGPQESKHSDPFRSKILKQKEKKKREKRQKPGRASSDGPAGEEPVAGQEALTLGLWSGPLPRVTLHCSRTLLGFVTQGDFSMAVGCGEALGFVSLTGLLDMLSSQPAAQRGLVLLRPPASLQYRFARIAIEV
B5: LARP7: host protein, UniProt Q4G0J3 (protein, UniProt Q4G0J3 1-582, looked up)
La-related protein 7: METESGNQEKVMEEESTEKKKEVEKKKRSRVKQVLADIAKQVDFWFGDANLHKDRFLREQIEKSRDGYVDISLLVSFNKMKKLTTDGKLIARALRSSAVVELDLEGTRIRRKKPLGERPKDEDERTVYVELLPKNVNHSWIERVFGKCGNVVYISIPHYKSTGDPKGFAFVEFETKEQAAKAIEFLNNPPEEAPRKPGIFPKTVKNKPIPALRVVEEKKKKKKKKGRMKKEDNIQAKEENMDTSNTSISKMKRSRPTSEGSDIESTEPQKQCSKKKKKRDRVEASSLPEVRTGKRKRSSSEDAESLAPRSKVKKIIQKDIIKEASEASKENRDIEISTEEEKDTGDLKDSSLLKTKRKHKKKHKERHKMGEEVIPLRVLSKSEWMDLKKEYLALQKASMASLKKTISQIKSESEMETDSGVPQNTGMKNEKTANREECRTQEKVNATGPQFVSGVIVKIISTEPLPGRKQVRDTLAAISEVLYVDLLEGDTECHARFKTPEDAQAVINAYTEINKKHCWKLEILSGDHEQRYWQKILVDRQAKLNQPREKKRGTEKLITKAEKIRLAKTQQASKHIRFSEYD
B6: RBM4 (protein, UniProt Q9BWF3 1-364, looked up)
RNA-binding protein 4: MVKLFIGNLPREATEQEIRSLFEQYGKVLECDIIKNYGFVHIEDKTAAEDAIRNLHHYKLHGVNINVEASKNKSKTSTKLHVGNISPTCTNKELRAKFEEYGPVIECDIVKDYAFVHMERAEDAVEAIRGLDNTEFQGKRMHVQLSTSRLRTAPGMGDQSGCYRCGKEGHWSKECPIDRSGRVADLTEQYNEQYGAVRTPYTMSYGDSLYYNNAYGALDAYYKRCRAARSYEAVAAAAASVYNYAEQTLSQLPQVQNTAMASHLTSTSLDPYDRHLLPTSGAAATAAAAAAAAAAVTAASTSYYGRDRSPLRRATAPVPTVGEGYGYGHESELSQASAAARNSLYDMARYEREQYADRARYSAF
B7: APOBEC3F (protein, UniProt Q8IUX4 1-373, looked up)
DNA dC->dU-editing enzyme …: MKPHFRNTVERMYRDTFSYNFYNRPILSRRNTVWLCYEVKTKGPSRPRLDAKIFRGQVYSQPEHHAEMCFLSWFCGNQLPAYKCFQITWFVSWTPCPDCVAKLAEFLAEHPNVTLTISAARLYYYWERDYRRALCRLSQAGARVKIMDDEEFAYCWENFVYSEGQPFMPWYKFDDNYAFLHRTLKEILRNPMEAMYPHIFYFHFKNLRKAYGRNESWLCFTMEVVKHHSPVSWKRGVFRNQVDPETHCHAERCFLSWFCDDILSPNTNYEVTWYTSWSPCPECAGEVAEFLARHSNVNLTIFTARLYYFWDTDYQEGLRSLSQEGASVEIMGYKDFKYCWENFVYNDDEPFKPWKGLKYNFLFLDSKLQEILE

Legend:
[1] = test system: gRNA of HCoV-OC43; format: binding; settings: type n_48_v: 48 hours post-infection; for target (spectral count, OC43 Probe I RNP capture): infected cells, unweighted spectral count; for background (spectral count, no-probe control): no-probe control on infected cells
[2] = test system: HCoV-OC43 gRNA and sgRNA; format: binding; settings: for target (unweighted spectral count, OC43 Probe II capture): tested against no-probe control, FDR<10%; for target (unweighted spectral count, OC43 Probe II) / background (unweighted spectral count, no-probe control): type n_48_v, 48 hpi; for target (unweighted spectral count, OC43 Probe II): OC43 Probe II capture on infected cells; for background (unweighted spectral count, no-probe control): no-probe control on infected cells; for target (spectral count) / background (spectral count): type s_36_m, Probe II; for target (spectral count): HCoV-OC43-infected HCT-8 cells; for background (spectral count): uninfected-probe control

Molecule	target (spectral count, OC43 Probe I RNP capture) [1]	background (spectral count, no-probe control) [1]	target (unweighted spectral count, OC43 Probe II capture) ([2]; 24 hpi, type n_24_v)	target (unweighted spectral count, OC43 Probe II capture) ([2]; 36 hpi, type n_36_v)	target (unweighted spectral count, OC43 Probe II) [2]	background (unweighted spectral count, no-probe control) [2]	target (spectral count) ([2]; 36 hpi)	background (spectral count) ([2]; 36 hpi)
B1	10	2	4	7	8	2	7	1
B2	6	1	–	–	9	1	–	–
B3	14	3	–	–	22	3	–	–
B4	6	1	–	8	7	1	8	1
B5	6	1	–	7	9	1	7	1
B6	6	1	4	4	–	–	–	–
B7	6	1	–	4	6	1	–	–
